Substitutions are numbered along the chain they refer to. In names and notes the source's numbering stands. Each block holds one binder with its values, some of them ahead of it.
Key:
[1] = molecular target: T1, human GITR expressed on cells (human, UniProt Q9Y5U5 26-241); test: cell-based or functional assay
T1 sequence: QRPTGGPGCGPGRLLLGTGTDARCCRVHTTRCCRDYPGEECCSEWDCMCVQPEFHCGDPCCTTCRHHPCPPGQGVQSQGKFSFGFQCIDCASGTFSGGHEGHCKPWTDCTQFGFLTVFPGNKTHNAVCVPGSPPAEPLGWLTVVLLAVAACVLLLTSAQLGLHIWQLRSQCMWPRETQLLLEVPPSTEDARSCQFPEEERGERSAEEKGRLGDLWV

[2] = molecular target: T2, cynomolgus monkey GITR expressed on HT1080 cells (cynomolgus monkey); test: cell-based or functional assay
T2 chain: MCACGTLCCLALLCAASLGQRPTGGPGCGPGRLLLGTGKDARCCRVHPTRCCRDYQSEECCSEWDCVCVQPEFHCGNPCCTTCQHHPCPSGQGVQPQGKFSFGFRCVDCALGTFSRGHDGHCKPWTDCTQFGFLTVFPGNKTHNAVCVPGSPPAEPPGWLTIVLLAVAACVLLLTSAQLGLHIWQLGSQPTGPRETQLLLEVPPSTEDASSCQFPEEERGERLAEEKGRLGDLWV

human GITR-Fc = molecular target: T3, human GITR-Fc (human, UniProt Q9Y5U5 26-162); test: BLI Octet RED384, ABP on AHQ sensor, 100 nM antigen, single concentration;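 note: association and dissociation each tracked over 180 s, with dissociation run in antigen-free buffer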
T3 construct: also called recombinant hGITR; wild type human GITR-Fc
T3 sequence: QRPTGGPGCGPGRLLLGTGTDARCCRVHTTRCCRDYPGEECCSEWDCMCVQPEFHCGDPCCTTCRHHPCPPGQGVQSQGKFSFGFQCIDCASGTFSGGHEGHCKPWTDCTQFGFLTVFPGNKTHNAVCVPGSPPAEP
Experimental: (§1) The sensors were quenched by dipping into an unrelated human IgG1 antibody to prevent non-specific binding of GITR-Fc antigens to the sensor. The sensors were equilibrated in assay buffer for 30 minutes. Baseline was established by dipping the sensors into assay buffer for 60 seconds. Association was monitored for 180 seconds in 100 nM of recombinant antigens, and dissociation was followed for 180 seconds in buffer alone. KD was determined using the kinetic function of the FORTEBIO® Analysis Software using a 1:1 binding model.

[3] = molecular target: T1, human GITR expressed on cells; test: cell-based or functional assay; remark: listed apart in the source
[4] = molecular target: T2, cynomolgus monkey GITR expressed on …; test: cell-based or functional assay
cyno GITR-Fc = molecular target: T4, cyno GITR-Fc (cynomolgus monkey); test: BLI Octet RED384, ABP on AHQ sensor, 100 nM antigen, single concentration;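 note: association and dissociation each tracked over 180 s, with dissociation run in antigen-free buffer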
T4 construct: also called cGITR; cynomolgus GITR
T4 chain: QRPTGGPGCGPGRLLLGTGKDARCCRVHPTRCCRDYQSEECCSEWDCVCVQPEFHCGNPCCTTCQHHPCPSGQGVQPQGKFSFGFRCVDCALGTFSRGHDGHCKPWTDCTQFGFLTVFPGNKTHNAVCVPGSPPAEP
Experimental: as §1

[5] = molecular target: T1, human GITR expressed on cells; test: cell-based or functional assay; remark: listed apart in the source
[6] = molecular target: T2, cynomolgus monkey GITR expressed on …; test: cell-based or functional assay

B1: ABP44 (antibody, human IgG1, kappa, N297A, V domains shown)
VH: QVQLVQSGAEVKKPGSSVKVSCKASGGTFSSYYISWVRQAPGQGLEWMGGIIPVPGTANYAQKFQGRVTITADESTSTAYMELSSLRSEDTAVYYCARAGGGYARGDHYYGMDVWGQGTTVTVSS
VL: not shown
notes: IgG1 N297A, H1H2-optimized, non-TM
EC50 in human HT1080 (IL-8 induction), n = 2 [1]: 4.2 nM | EC50 in cynomolgus HT1080 (IL-8 induction), n = 1 [2]: 28 nM | Kd (human GITR-Fc): 46.5 nM

B2: ABP11 (antibody, human IgG1, kappa, N297A, V domains shown)
VH: B1 VH with K13R, A40V
VL: not shown
EC50 in human HT1080 (IL-8 induction) [3]: 3.9 nM | EC50 in cynomolgus HT1080 (IL-8 induction) [4]: 21.6 nM | Kd (human GITR-Fc): 3.1 nM | Kd (cyno GITR-Fc): 8.5 nM

B4: ABP39 (antibody, human IgG1, kappa, N297A, V domains shown)
VH: QVQLQESGPGLVKPSETLSLTCAVSGYSISSGAGWGWIRQPPGKGLEWIGLIVHSGSTYYNPSLKSRVTISVDTSKNQFSLKLSSVTAADTAVYYCVLESVRGYGDYGGHHAFDIWGQGTMVTVSS
VL: DIQMTQSPSSLSASVGDRVTITCRASQSISSYLNWYQQKPGKAPKLLIYAADSLQSGVPSRFSGSGSGTDFTLTISSLQPEDFATYYCQQEYNTPPTFGGGTKVEIKR
notes: IgG1 N297A, bivalent; also called non-TM ABP corresponding to ABP6
Average EC50 in human HT1080 (IL-8 induction) [5]: 0.44 nM | Average EC50 in cynomolgus HT1080 (IL-8 induction) [6]: 2.3 nM | Kd (human GITR-Fc): 0.7 nM | Kd (cyno GITR-Fc): 8.2 nM

B6: ABP37 (antibody, human IgG1, kappa, N297A, V domains shown)
VH: B4 VH
VL: B4 VL with D52S, Q55K, S56Y
notes: IgG1 N297A, bivalent; also called non-TM ABP corresponding to ABP3
Average EC50 in human HT1080 (IL-8 induction) [5]: 0.19 nM | Average EC50 in cynomolgus HT1080 (IL-8 induction) [6]: 1.7 nM | Kd (human GITR-Fc): 0.7 nM | Kd (cyno GITR-Fc): 8.1 nM

B7: ABP38 (antibody, human IgG1, kappa, N297A, V domains shown)
VH: B4 VH with L46P
VL: B4 VL with Q27K, S30D, D52S
notes: IgG1 N297A, bivalent; also called non-TM ABP corresponding to ABP4/5
Average EC50 in human HT1080 (IL-8 induction) [5]: 0.33 nM | Average EC50 in cynomolgus HT1080 (IL-8 induction) [6]: 14.3 nM | Kd (human GITR-Fc): 0.6 nM | Kd (cyno GITR-Fc): 11.1 nM

B9: ABP40 (antibody, human IgG1, kappa, N297A, V domains shown)
VH: B4 VH with G32E, A33Y, G34M, V53Y, S57K, V97A, L98R, S100A, V101D
VL: B4 VL with S30N, D52S, Q55D
notes: IgG1 N297A, bivalent; also called non-TM ABP corresponding to ABP7
Average EC50 in human HT1080 (IL-8 induction) [5]: 0.34 nM | Average EC50 in cynomolgus HT1080 (IL-8 induction) [6]: 1.1 nM | Kd (human GITR-Fc): 2.2 nM | Kd (cyno GITR-Fc): 4.9 nM

B11: ABP36 (antibody, human IgG1, kappa, N297A, V domains shown)
VH: QVQLQESGPGLVKPSQTLSLTCTVSGGSISSGGAVWSWIRQHPGKGLEWIGGIAYSGSTYYNPSLKSRVTISVDTSKNQFSLKLSSVTAADTAVYYCADENVRGYGDYGGHHAFDIWGQGTMVTVSS
VL: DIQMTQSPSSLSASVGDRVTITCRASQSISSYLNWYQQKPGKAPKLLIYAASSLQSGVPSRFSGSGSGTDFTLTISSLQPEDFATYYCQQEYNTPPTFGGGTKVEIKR
notes: IgG1 N297A, bivalent; also called non-TM ABP corresponding to ABP2
Average EC50 in human HT1080 (IL-8 induction) [5]: 0.58 nM | Average EC50 in cynomolgus HT1080 (IL-8 induction) [6]: 8.8 nM | Kd (human GITR-Fc): 1.4 nM | Kd (cyno GITR-Fc): 7.5 nM

B13: ABP13 (antibody, human IgG1, kappa, N297A, V domains shown)
VH: QVQLVQSGAEVKKPGSSVKVSCKASGGTFSRGAISWVRQAPGQGLEWMGGIIPIEGTAYYAQKFQGRVTITADESTGTAYMELSSLRSEDTAVYYCARQSDYGLPRGMDVWGQGTTVTVSS
VL: DIQLTQSPSSVSASVGDRVTITCRASQGISSWLAWYQQKPGKAPKLLIYGASSLQSGVPSRFSGSGSGTDFTLTISSLQPEDFATYYCQQASLFPPTFGGGTKVEIKR
EC50 in human HT1080 (IL-8 induction) [3]: 7.8 nM | EC50 in cynomolgus HT1080 (IL-8 induction) [4]: 15 nM | Kd (human GITR-Fc): 5.5 nM | Kd (cyno GITR-Fc): 6.4 nM

B14: ABP14 (antibody, human IgG1, kappa, N297A, V domains shown)
VH: QVQLVQSGAEVKKPGSSVKVSCKASGGTFSSYAISWVRQAPGQGLEWMGGIIPISGFTNYAQKFQGRVTITADESTSTAYMELSSLRSEDTAVYYCAREGGHYYSGWPYWGQGTLVTVSS
VL: EIVLTQSPATLSLSPGERATLSCRASQSVSSYLAWYQQKPGQAPRLLIYDASNRATGIPARFSGSGSGTDFTLTISSLEPEDFAVYYCQQRLVFPPTFGGGTKVEIKR
EC50 in human HT1080 (IL-8 induction) [3]: 0.6 nM | EC50 in cynomolgus HT1080 (IL-8 induction) [4]: 4.1 nM | Kd (human GITR-Fc): 2.8 nM | Kd (cyno GITR-Fc): 5.9 nM

B15: ABP18 (antibody, human IgG1, kappa, N297A, V domains shown)
VH: QVQLVQSGAEVKKPGSSVKVSCKASGGTFVRYAISWVRQAPGQGLEWMGGIIPIFGEAQYAQKFRGRATITADESTSTAYMELSSLRSEDTAVYYCAREGYYYGALPYWGQGTLVTVSS
VL: B14 VL with R91H, L92S
EC50 in human HT1080 (IL-8 induction) [3]: 2.1 nM | EC50 in cynomolgus HT1080 (IL-8 induction) [4]: 13.2 nM | Kd (human GITR-Fc): 4 nM | Kd (cyno GITR-Fc): 8.4 nM

B17: ABP16 (antibody, human IgG1, kappa, N297A, V domains shown)
VH: B14 VH with R67K
VL: B14 VL
EC50 in human HT1080 (IL-8 induction) [3]: 0.6 nM | EC50 in cynomolgus HT1080 (IL-8 induction) [4]: 3.8 nM | Kd (human GITR-Fc): 2.9 nM | Kd (cyno GITR-Fc): 5.4 nM

The remaining binders from weak to strong by Kd (human GITR-Fc), led by results:

EC50 in human HT1080 (IL-8 induction), n = 2 [1]: 0.8 nM | Kd (human GITR-Fc): 14.8 nM | binding result (cyno GITR-Fc): no binding (tested: 100 nM)
B8: ABP48 (antibody, human IgG1, kappa, N297A, V domains shown)
VH: B4 VH with G32E, A33Y, G34M, V53Y, S57K, V97A, L98R, E99D, V101G
VL: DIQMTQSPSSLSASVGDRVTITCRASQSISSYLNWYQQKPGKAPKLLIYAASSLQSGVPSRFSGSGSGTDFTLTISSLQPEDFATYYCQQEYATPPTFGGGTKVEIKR
notes: as for B1

EC50 in human HT1080 (IL-8 induction), n = 2 [1]: 17.8 nM | Kd (human GITR-Fc): 11.5 nM | binding result (cyno GITR-Fc): no binding (tested: 100 nM)
B12: ABP42 (antibody, human IgG1, kappa, N297A, V domains shown)
VH: QLQLQESGPGLVKPSETLSLTCTVSGGSISSSSYAWGWIRQPPGKGLEWIGSIYYSGSTYYNPSLKSRVTISVDTSKNQFSLKLSSVTAADTAVYYCARDSGRGYGDYGGHHAFDIWGQGTMVTVSS
VL: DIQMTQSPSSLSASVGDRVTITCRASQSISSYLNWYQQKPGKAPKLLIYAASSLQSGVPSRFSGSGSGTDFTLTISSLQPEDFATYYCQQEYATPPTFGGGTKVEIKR
notes: IgG1 N297A, non-optimized, non-TM

EC50 in human HT1080 (IL-8 induction) [3]: 5.3 nM | EC50 in cynomolgus HT1080 (IL-8 induction) [4]: 8.4 nM | Kd (human GITR-Fc): 4.2 nM | Kd (cyno GITR-Fc): 4.6 nM
B16: ABP17 (antibody, human IgG1, kappa, N297A, V domains shown)
VH: B15 VH with K63R, R65Q, A68V
VL: B14 VL with R91H, L92S

EC50 in human HT1080 (IL-8 induction) [3]: 0.6 nM | EC50 in cynomolgus HT1080 (IL-8 induction) [4]: 4.5 nM | Kd (human GITR-Fc): 3.3 nM | Kd (cyno GITR-Fc): 5.2 nM
B18: ABP15 (antibody, human IgG1, kappa, N297A, V domains shown)
VH: B14 VH with G44R
VL: B14 VL

EC50 in human HT1080 (IL-8 induction) [3]: 3.5 nM | EC50 in cynomolgus HT1080 (IL-8 induction) [4]: 28.4 nM | Kd (human GITR-Fc): 2.8 nM | Kd (cyno GITR-Fc): 7.9 nM
B3: ABP12 (antibody, human IgG1, kappa, N297A, V domains shown)
VH: B1 VH with G44R
VL: not shown

Average EC50 in human HT1080 (IL-8 induction) [5]: 0.44 nM | Average EC50 in cynomolgus HT1080 (IL-8 induction) [6]: 2 nM | Kd (human GITR-Fc): 2.3 nM | Kd (cyno GITR-Fc): 6.9 nM
B5: ABP41 (antibody, human IgG1, kappa, N297A, V domains shown)
VH: B4 VH with G32E, A33Y, G34M, V53Y, S57K, V97A, L98R, S100A, V101D
VL: B4 VL with R24G, S31T, A50S, D52S, Q55E, T97S
notes: IgG1 N297A, bivalent; also called non-TM ABP corresponding to ABP8

Average EC50 in human HT1080 (IL-8 induction) [5]: 0.88 nM | Average EC50 in cynomolgus HT1080 (IL-8 induction) [6]: 2 nM | Kd (human GITR-Fc): 1.5 nM | Kd (cyno GITR-Fc): 5.7 nM
B10: ABP35 (antibody, human IgG1, kappa, N297A, V domains shown)
VH: B4 VH with A33L, L51G, V53Y, H54E, V97A, L98H, S100R
VL: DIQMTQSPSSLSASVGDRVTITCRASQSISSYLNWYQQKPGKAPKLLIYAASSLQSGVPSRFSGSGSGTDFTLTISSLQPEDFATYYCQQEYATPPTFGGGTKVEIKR
notes: IgG1 N297A, standard bivalent format; also called ABP35 IgG1; non-TM ABP corresponding to ABP1

Reference: US20210269542A1 (POTENZA THERAPEUTICS, published 2021)
